The source of these data is US20260042827A1 (UNIVERSITY HEALTH NETWORK, published 2026).

The target in test [1] is T1, HLA-DP2 (human, UniProt P20036 29-222; P04440 30-225, limits assumed).
T1 construct: whole, on cells; also called T2 cells transduced with DP2
T1 MHC II alpha: not shown
T1 MHC II beta: not shown
Briefly: cell-based competitive binding assay on T2/DP2 cells, reference peptide Oxy271-287.

The target in test [2] is T2, HLA-DP4 (human, UniProt P20036 29-222; P04440 30-225, limits assumed).
T2 construct: whole, on cells; also called T2/DP4
T2 sequence (P20036 29-222 limits assumed, chain 1 of 4, other chains not shown): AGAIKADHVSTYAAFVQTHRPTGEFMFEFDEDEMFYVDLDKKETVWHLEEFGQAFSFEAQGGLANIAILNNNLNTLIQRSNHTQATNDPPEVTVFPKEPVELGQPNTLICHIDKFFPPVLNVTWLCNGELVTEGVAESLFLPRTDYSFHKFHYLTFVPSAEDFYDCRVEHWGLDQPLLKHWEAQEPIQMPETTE
T2 sequence (P04440 30-225 limits assumed, chain 2 of 4, other chains not shown): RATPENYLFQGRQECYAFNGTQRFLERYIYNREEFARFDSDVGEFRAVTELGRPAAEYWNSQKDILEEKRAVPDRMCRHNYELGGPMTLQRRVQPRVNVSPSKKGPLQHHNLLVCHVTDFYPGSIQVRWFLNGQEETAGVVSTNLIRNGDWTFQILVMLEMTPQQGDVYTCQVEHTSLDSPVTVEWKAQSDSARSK
Briefly: cell-based competitive binding assay on T2/DP4 cells, reference peptide Oxy271-287.

Test [3] deals with T2, HLA-DP4. Briefly: cell-based competitive binding assay on T2/DP4 cells, graded WT1328-348 against reference peptide Oxy271-287.
The target in test [4] is T3, WT1330-348.
T3 construct: also called WT1 peptide
T3 peptide: CNKRYFKLSHLQMHSRKHT
Briefly: biolayer interferometry (Octet Red96), biotinylated peptide on streptavidin tips, 5H2 in solution, steady state fit with 1:1 model.

Test [5] deals with T4, WT1330-348 presented by DP2 on K562 cells (human, UniProt P20036 29-260; P04440 30-258).
T4 construct: whole, on cells; Exogenously pulsed peptide
T4 MHC II alpha: not shown
T4 MHC II beta: not shown
T4 peptide: CNKRYFKLSHLQMHSRKHT
Briefly: flow cytometry on peptide-pulsed K562 transfectants, PE anti-mouse secondary. A general note: A flow cytometer gives signals particle by particle.

Test [6] concerns the target T5, WT1330-348 presented by DP5 on K562 cells (human, UniProt P20036 29-260; P04440 30-258).
T5 construct: whole, on cells; Exogenously pulsed peptide
T5 MHC II alpha: not shown
T5 MHC II beta: not shown
T5 peptide: CNKRYFKLSHLQMHSRKHT
The test is described as above.

The target of test [7] is T6, WT1330-348 presented by DP4 on K562 cells (human, UniProt P20036 29-260; P04440 30-258).
T6 construct: whole, on cells; Exogenously pulsed peptide
The test is described as above.

B1: WT1235-243 (peptide)
peptide: CMTWNQMNL
notes: Negative control peptide; also called HLA-A2 restricted peptide
For B1, the binding result in test [1] and in test [2] was “no binding (tested: any tested concentration)” in each case.
As to PGCNKRYFKLSHLQMHSRKHT (also called 21-mer peptide) [WT1328-348], in test [3], the binding result was “binds”.

B2: WT1-specific mAb, 5H2 (antibody, V domains shown)
VH: EVQLQQSGAELVRPGALVKLSCKASGFNIKDYYMHWVKQRPEQGLEWIGWIDPENGNTIYDPKFQGKASITADTSSNTAYLQLSSLTSGDTAVYYCTRDGYYMVFAYWGQGTLVTVSA
VL: DIQMTQSPSSLSASLGGKVTITCKASQDINKCIAWYKHKPGKGPRLLIHYTSILQPGIPSRFSGSGSGRDYSFSISNLEPEDIATYYCLQYDNLYTFGGGTKLEIK
notes: also called clone 5H2; 5H2 mAb
Usually Kd stands for the concentration at which binding is half-saturated. A high value points to weaker binding. B2: the Kd in test [4] was ~50 nM. Besides, the binding result in test [5], in test [6] and in test [7] was “binds” throughout.
